The values that follow come from article PMC9302817, “VEGF receptor heterodimers and homodimers are differentially expressed in neuronal and endothelial cell types” (PLoS ONE, 2022).

Sequences and labels used below:
B1: VEGFR2 (mouse, endogenous in MAEC, MVEC, trigeminal ganglion neurons and mouse tissues) (receptor, UniProt P35918 20-1345, looked up)
chain: ASVGLPGDFLHPPKLSTQKDILTILANTTLQITCRGQRDLDWLWPNAQRDSEERVLVTECGGGDSIFCKTLTIPRVVGNDTGAYKCSYRDVDIASTVYVYVRDYRSPFIASVSDQHGIVYITENKNKTVVIPCRGSISNLNVSLCARYPEKRFVPDGNRISWDSEIGFTLPSYMISYAGMVFCEAKINDETYQSIMYIVVVVGYRIYDVILSPPHEIELSAGEKLVLNCTARTELNVGLDFTWHSPPSKSHHKKIVNRDVKPFPGTVAKMFLSTLTIESVTKSDQGEYTCVASSGRMIKRNRTFVRVHTKPFIAFGSGMKSLVEATVGSQVRIPVKYLSYPAPDIKWYRNGRPIESNYTMIVGDELTIMEVTERDAGNYTVILTNPISMEKQSHMVSLVVNVPPQIGEKALISPMDSYQYGTMQTLTCTVYANPPLHHIQWYWQLEEACSYRPGQTSPYACKEWRHVEDFQGGNKIEVTKNQYALIEGKNKTVSTLVIQAANVSALYKCEAINKAGRGERVISFHVIRGPEITVQPAAQPTEQESVSLLCTADRNTFENLTWYKLGSQATSVHMGESLTPVCKNLDALWKLNGTMFSNSTNDILIVAFQNASLQDQGDYVCSAQDKKTKKRHCLVKQLIILERMAPMITGNLENQTTTIGETIEVTCPASGNPTPHITWFKDNETLVEDSGIVLRDGNRNLTIRRVRKEDGGLYTCQACNVLGCARAETLFIIEGAQEKTNLEVIILVGTAVIAMFFWLLLVIVLRTVKRANEGELKTGYLSIVMDPDELPLDERCERLPYDASKWEFPRDRLKLGKPLGRGAFGQVIEADAFGIDKTATCKTVAVKMLKEGATHSEHRALMSELKILIHIGHHLNVVNLLGACTKPGGPLMVIVEFCKFGNLSTYLRGKRNEFVPYKSKGARFRQGKDYVGELSVDLKRRLDSITSSQSSASSGFVEEKSLSDVEEEEASEELYKDFLTLEHLICYSFQVAKGMEFLASRKCIHRDLAARNILLSEKNVVKICDFGLARDIYKDPDYVRKGDARLPLKWMAPETIFDRVYTIQSDVWSFGVLLWEIFSLGASPYPGVKIDEEFCRRLKEGTRMRAPDYTTPEMYQTMLDCWHEDPNQRPSFSELVEHLGNLLQANAQQDGKDYIVLPMSETLSMEEDSGLSLPTSPVSCMEEEEVCDPKFHYDNTAGISHYLQNSKRKSRPVSVKTFEDIPLEEPEVKVIPDDSQTDSGMVLASEELKTLEDRNKLSPSFGGMMPSKSRESVASEGSNQTSGYQSGYHSDDTDTTVYSSDEAGLLKMVDAAVHADSGTTLRSPPV
notes: Endogenous protein; also called KDR; flk-1; source: endogenous, MAEC and MVEC lysates; endogenous, mouse tissue lysates (thoracic aorta, portal vein, dorsal root ganglia, trigeminal ganglia, cornea); endogenous, fixed MAEC, MVEC and trigeminal ganglion neuronal cells
B2: VEGFR1 (mouse, endogenous in MAEC, MVEC, trigeminal ganglion neurons and mouse tissues) (receptor, UniProt P35969 23-1333, looked up)
chain: YGSGSKLKVPELSLKGTQHVMQAGQTLFLKCRGEAAHSWSLPTTVSQEDKRLSITPPSACGRDNRQFCSTLTLDTAQANHTGLYTCRYLPTSTSKKKKAESSIYIFVSDAGSPFIEMHTDIPKLVHMTEGRQLIIPCRVTSPNVTVTLKKFPFDTLTPDGQRITWDSRRGFIIANATYKEIGLLNCEATVNGHLYQTNYLTHRQTNTILDVQIRPPSPVRLLHGQTLVLNCTATTELNTRVQMSWNYPGKATKRASIRQRIDRSHSHNNVFHSVLKINNVESRDKGLYTCRVKSGSSFQSFNTSVHVYEKGFISVKHRKQPVQETTAGRRSYRLSMKVKAFPSPEIVWLKDGSPATLKSARYLVHGYSLIIKDVTTEDAGDYTILLGIKQSRLFKNLTATLIVNVKPQIYEKSVSSLPSPPLYPLGSRQVLTCTVYGIPRPTITWLWHPCHHNHSKERYDFCTENEESFILDPSSNLGNRIESISQRMTVIEGTNKTVSTLVVADSQTPGIYSCRAFNKIGTVERNIKFYVTDVPNGFHVSLEKMPAEGEDLKLSCVVNKFLYRDITWILLRTVNNRTMHHSISKQKMATTQDYSITLNLVIKNVSLEDSGTYACRARNIYTGEDILRKTEVLVRDSEAPHLLQNLSDYEVSISGSTTLDCQARGVPAPQITWFKNNHKIQQEPGIILGPGNSTLFIERVTEEDEGVYRCRATNQKGAVESAAYLTVQGTSDKSNLELITLTCTCVAATLFWLLLTLFIRKLKRSSSEVKTDYLSIIMDPDEVPLDEQCERLPYDASKWEFARERLKLGKSLGRGAFGKVVQASAFGIKKSPTCRTVAVKMLKEGATASEYKALMTELKILTHIGHHLNVVNLLGACTKQGGPLMVIVEYCKYGNLSNYLKSKRDLFCLNKDAALHMELKKESLEPGLEQGQKPRLDSVSSSSVTSSSFPEDRSVSDVEGDEDYSEISKQPLTMEDLISYSFQVARGMEFLSSRKCIHRDLAARNILLSENNVVKICDFGLARDIYKNPDYVRRGDTRLPLKWMAPESIFDKVYSTKSDVWSYGVLLWEIFSLGGSPYPGVQMDEDFCSRLKEGMRMRTPEYATPEIYQIMLDCWHKDPKERPRFAELVEKLGDLLQANVQQDGKDYIPLNAILTRNSGFTYSTPTFSEDLFKDGFADPHFHSGSSDDVRYVNAFKFMSLERIKTFEELSPNSTSMFEDYQLDTSTLLGSPLLKRFTWTETKPKASMKIDLRIASKSKEAGLSDLPRPSFCFSSCGHIRPVQDDESELGKESCCSPPPDYNSVVLYSSPPA
notes: VEGF receptor 1 (VEGFR-1, flt-1), endogenous in mouse aortic and venous endothelial cell lines, thy1-YFP mouse trigeminal ganglion neurons and mouse tissues; Endogenous protein; also called flt-1; Flt-1; source: endogenous, MAEC and MVEC lysates; endogenous, mouse tissue lysates (thoracic aorta, portal vein, dorsal root ganglia, trigeminal ganglia, cornea); endogenous, fixed MAEC, MVEC and …

Data set [1] concerns the molecule itself. In words: proximity ligation; Duolink PLA on fixed mouse trigeminal ganglion (TG) neuronal cells; anti-VEGFR1 and anti-VEGFR2 with PLUS and MINUS probes (the same antibody with both probes for homodimers); signal only within 40 nm.
For data set [2], the target named is B2. Described as above. Conditions: partners not purified.
Data set [3] concerns the molecule itself. As to the kind of experiment: proximity ligation; Duolink PLA on fixed MVEC; anti-VEGFR1 and anti-VEGFR2 with PLUS and MINUS probes (the same antibody with both probes for homodimers); signal only within 40 nm.
For data set [4], the target named is B2. Described as above. Conditions: partners not purified.

Turning to B1, the “mean PLA fluorescence intensity per cell” value is 706000 in data set [1], 268000 in data set [2], 2.58e+06 in data set [3] and 99600 in data set [4].
As for B2, the results for the “mean PLA fluorescence intensity per cell” value in data set [1] and in data set [3] were 2200 and 43300, respectively.
